In patent publication US20110166062A1:

What was measured:
Assay in all cases: cell-based or functional assay
glucagon receptor = glucagon receptor (UniProt P47871)
GIP receptor = GIP receptor (UniProt P48546)
GLP-1 receptor = GLP-1 receptor (UniProt P43220)
Chain of GLP-1 receptor (P43220 24-463 limits assumed): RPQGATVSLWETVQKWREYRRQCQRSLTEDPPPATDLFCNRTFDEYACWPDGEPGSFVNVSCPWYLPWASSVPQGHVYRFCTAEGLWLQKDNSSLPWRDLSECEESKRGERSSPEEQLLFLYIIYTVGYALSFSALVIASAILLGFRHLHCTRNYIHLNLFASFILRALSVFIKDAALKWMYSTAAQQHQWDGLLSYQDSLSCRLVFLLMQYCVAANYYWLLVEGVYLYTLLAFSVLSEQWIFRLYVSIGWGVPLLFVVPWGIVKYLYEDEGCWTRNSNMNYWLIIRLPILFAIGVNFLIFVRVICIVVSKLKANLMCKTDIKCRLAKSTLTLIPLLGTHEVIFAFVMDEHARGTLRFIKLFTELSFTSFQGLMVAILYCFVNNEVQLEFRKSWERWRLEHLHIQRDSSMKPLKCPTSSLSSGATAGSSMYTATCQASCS

Chain of glucagon receptor (P47871 26-477 limits assumed): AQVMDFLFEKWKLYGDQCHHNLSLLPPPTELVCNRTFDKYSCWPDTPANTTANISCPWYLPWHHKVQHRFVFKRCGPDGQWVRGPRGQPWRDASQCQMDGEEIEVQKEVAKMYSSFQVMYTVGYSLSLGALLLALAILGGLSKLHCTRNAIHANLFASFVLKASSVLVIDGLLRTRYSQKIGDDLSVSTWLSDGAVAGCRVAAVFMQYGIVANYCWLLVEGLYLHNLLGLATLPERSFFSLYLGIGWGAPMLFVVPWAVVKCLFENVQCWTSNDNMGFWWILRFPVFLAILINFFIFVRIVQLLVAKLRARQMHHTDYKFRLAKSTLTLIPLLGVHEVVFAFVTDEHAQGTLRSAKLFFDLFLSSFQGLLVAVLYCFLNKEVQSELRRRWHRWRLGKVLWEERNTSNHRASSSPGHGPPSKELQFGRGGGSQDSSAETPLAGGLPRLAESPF
Chain of GIP receptor (P48546 22-466): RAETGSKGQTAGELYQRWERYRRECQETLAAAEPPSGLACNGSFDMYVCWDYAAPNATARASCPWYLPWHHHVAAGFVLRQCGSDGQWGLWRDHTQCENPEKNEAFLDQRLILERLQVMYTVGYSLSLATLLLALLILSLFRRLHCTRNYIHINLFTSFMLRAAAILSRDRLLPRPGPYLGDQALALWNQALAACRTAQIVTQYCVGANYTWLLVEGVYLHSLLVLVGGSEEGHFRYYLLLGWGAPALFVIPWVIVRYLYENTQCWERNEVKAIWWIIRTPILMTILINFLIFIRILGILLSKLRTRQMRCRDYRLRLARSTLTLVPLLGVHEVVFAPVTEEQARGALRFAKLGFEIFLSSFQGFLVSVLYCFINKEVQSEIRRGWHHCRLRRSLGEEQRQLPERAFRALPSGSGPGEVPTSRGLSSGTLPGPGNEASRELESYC

| Substance | % activity at the glucagon receptor (glucagon receptor) | EC50 (GIP receptor) | EC50 (GLP-1 receptor) | EC50 (glucagon receptor) |
| --- | --- | --- | --- | --- |
| Liraglutide (peptide) | 0.04% |  |  |  |
| mt-103 (peptide) |  | 0.000242 µM | 0.0269 µM | > 4 µM |
